# In the DeepSol protein solubility set:
# Test: soluble on expression in E. coli; label from the status in PepcDB or PDB records
row,Sequence,soluble on expression in E. coli
1,MGSPTAEELTGCLFFSPDDGRIWLNDQRMLLLHSSSFGTLRREIIERLGQEPARGMFTRAGYLSGARDARLIRERWPLADATSAFRAGTHLHTLEGMAKVESLHFKFDAESGFYEGEFLWHNSCEADEHLAACGTGQDPVCWTEIGYAIGFVSGLFGQMVIFREVECRGMGHASCRVIGKTAEQWGDVERDLSYLSVAKTVAPAHTPALANAHYDAGPPTGTDQPLIGASAAFNAATQALQRVAMTPATVLISGESGVGKEMFARQLHQLSRNREGPFVALNCAAIPDNLIEAELFGVERGAYTGATHSRPGRFERANGGTLFLDEITSLSLAGQSKLLRALQEREIERVGGGHGIKVNVRVVAATNVDLRKAVAEGDFREDLFYRLNVYPIALPPLRERRDDIPLLINAFLQRFCHEYGRTPAGLTMRALKTLLRYDFAGNVRELQNLIERGLIASDEGQAIDLVHIFRNESLPVDSYSLNHDGALSKAAPPIAHTAQGAALLDTLSQEKQAFSIEELEQQLIREALEKSAGNLAAASRLLGLSRAQFA,not soluble
2,MTTFILSHNLQVQSKDVPPFETQVLADGIVSNSSAIISATVIQHPHWIIELTSNLPPNDMAVELVKSWKQLRSKLGQSADHVILALGGRKDSLAAPGAPLQEGFWGVDVVETHDEEAFLQAINWDALKSNRPEDGVFEISSNN,not soluble
3,MSLHPHAMPDMGPDMNKVPWMGDEQIAMLVYPGMTVMDLVGPHCMFGSLMGAKIYIVAKSLDPVTSDAGLAIVPTATFGTCPRDLTVLFAPGGTDGTLAAASDAETLAFMADRGARAKYITSVCSGSLILGAAGLLKGYKATSHWSCRDALAGFGAIPTEARVVRDRNRITGAGVTAGLDFGLSMVAELRDQTYAECAQLMSEYDPDPPFNAGSMKTAPAHVRTAMIELVAEFTKKADALAGFPKEGHHHHHH,soluble
4,MTAPPPPLVELPPGSMVERWSITKKLGEGGCGAVYLCTDATGKYALKVEGISEAMQVLKMEVLVLGELTKRGSRHFCKIEDKGRYGSFNYVVMTLVGKSLQDLRKGTAQQCLSLACSLSVGIQSLEALEDLHNIGYLHRDVKPGNYTIGRAELNELRKVYILDFGMARKFTDNNGVIRKPRAAAGFRGTVRYAPIACHKNQELGRKDDVEVWLYMQVELTVGRVPWKEITDMNAVGQAKQAIRNTPEKMFVFPCPANELKEIMKMVDSWDYFADPNYADCYRLMKQTLANCGKPEYPYDWEPGMPLNYMVK,not soluble
5,MIEIESLSRKWKNFSLDNLSLKVESGEYFVILGPTGAGKTLFLELIAGFHVPDSGRILLDGKDVTDLSPEKHDIAFVYQNYSLFPHMNVKKNLEFGMRMKKIKDPKRVLDTARDLKIEHLLDRNPLTLSGGEQQRVALARALVTNPKILLLDEPLSALDPRTQENAREMLSVLHKKNKLTVLHITHDQTEARIMADRIAVVMDGKLIQVGKPEEIFEKPVEGRVASFVGFENVLKGRVISAEQGLLRIRVGEVVIDAAGDMEVGDQVYAFLRPENIALSKSSTQSSIRNSLQGRVTEAWVLGALVRVKVDCGVPLNVLITRRSAEEMELSPGVQIYARFKASSVHVLR,soluble
6,MGSDKIHHHHHHMLVTELNIYPLKSARGIALKESAVSAEGLPGDRRAMLTDPSGHFITQRELPAIATVLARHEDGGMALSRERSGEIFARPSGQRMDVAVWKSIVSANIADDETNDTLSAWLGREVKLVFFDDAAKRIASLEWTGNETPVTFADGYQILVTTTASLAALNDNMRGNGEDAVGMERFRPNIVLETEEAWAEDRWAAIEIGGIRFDLVKPCARCIMTTQDQMTGSRDVPSPMKAMGRIRMSGDRRVPGPLFGWNVTPRGEGRLSVGDVARVVEERPEGWAIKRR,not soluble
7,MTPLQQAQLSPQEEAVFDGDAISGSGLRFSELTRPVNLLVMGMSVLPPDVQNPPTETQNLRYLPQVNSFDGLADVMLMVKFDPETKKIAMLSIPRDTRTRIEGHGVRKINAANVEGGPALTATTVSNLLGGVGIDRYIRINVLGVGKLIDALGGVTVYVPKDMKYQDHSQHLYINLKAGKQHLNGDQVLQLLRFRHDELGDIGRIQRQQMVMRALMDQALNPVTVAQLPKILNVVKDNIDTNLTVEELVALVGFGVRTNRTNMQMLMLPGRFSEPNEYNASYWIPSKNGIAKLMAQHFGLESLSENPVNDPTAVRVAIQDSTGSDRSQLRPLINALEKAGYRNVYVANAWTEPLEVTNIIAQQGDGNSAESIRNALGFGEVRVESTGSLNSDISIQVGKDWLQQKSLLEDSIKFLEHHHHHH,soluble
8,MGEKEKEFAVIGLGRFGGSICRELAQLGMEVMAIDSDEDKINEFANIASHAVIADSTDEMVLKSLGIRNFDHVVVAIGDNLNSSILTTLILKELGVKNITVKAQNDYHEKVLSKIGADHIVHPERDMGKRIANNIASSNVLDYLELSDEHSIVEIIANKKIDGHSLIELDIRAKFGLNIVAIKRGKEVIVSPRATENIQAGDILIVIGHDDEVDRFKHFLR,not soluble
9,MTYELCLEYGTYPLSRVDAYWGEDQNPPTFIQEDRLLCHKLETMNHLFHDLFVTIESQFHYVGFNMPEKRAQIRILYQEVATILKSKYKDYPIKIETFLL,not soluble
10,MGSDKIHHHHHHVCSELAKDVPTNMSIKMPSLTPSSLSSLIPSSVPSEVQNVQGKDCMKEAIGADKIARQFSQAAKHYQEHDKVQRLSAQRLRTKMTPIGRLLDIGCGPGTDFSAAPGLNEVLGLDIAPGMLSQMLESFPSYKALCGDAQALPLSDASIDTLYSNLALQWCSDIKTAIGELARVLKPGSQCHLAIVVDGSLSELDALGLRVNAFEQAQTLLDGFSDSHWQIEHHSVEPLRVHFDDLKTLLYSIKGVGASAAMGSDVSQGSDVTQDSDASHGPDDTQGSVSKPPPRLRGRQDWLALCERAEKMRQPEGLPLTYQILFIHASRRG,not soluble
11,MDVAALVSGGVDSSVVVHRLCEEGYKPAIFYIRIGMEDKDGYIDCPAEEDIELTTLIARRYGCPFEVVDLHKEYWERVVSYTVETVRRGLTPNPDMMCNKLIKFGCFEERWGYQFDRIATGHYATTDLLNGKTYLSTAKDPVKDQTDFLAQINFAQISKLMFPIGHLLKSEVRAIANAAGLPSAKRKDSQGICFLGKIDYNDFIERYLGKKEGRIIELETGKVIGRHQGYWFHTIGQRKGLGLSGGPWFVVKKDIKRNIILVSRGYDPDAQYGKTIEMETFDFITEDAYEAGYWNREDATPVTFKIRHTPEFTRGLLYKGEKGYRLESEERIQGIAPGQYCVIYDEDHHLCYGSGMITKGR,not soluble
12,MSTFSFIIVNNEQVRIHDIQGKSHMSPYNGKKVNNVEGVVTALDKNGFYIEDNQPDNDPATSEGMYVYKKDANVAVGDLIQVDGVVEEYVGPGYAERFETDLTTTEIKASRVVVIAKDQSLPAPIVLGENGVKIPDQIIDNDAFGLFDPNEDAIDFYESIEGMRVTMPTPKVIAPQKNGNLYVTVKNGGDKIVTQYGTPLLDENQLNPERLSVKVPRDYVAKVGDTFTGDITGVVGYDYGSFRISPITELPAVVDGGFKQVGANIQPRLDKLTVATYNIENFSANKKETTDEKVKALAYSIKYNLKMPDIIGVEEMQDNNGLEHHHHHH,soluble
13,MTTAIQYQVIPLADREHSNKVASILENKYKTATNKRITLNERFGVLEKGYTIQATEPETVKNDSDVFFVVHDRNLNSKKEFVENYLAKNPIVNSPEKVFEEEDKENAPTKKAVLKPSSTDEKKLTSSDIYIQEITRSILQSV,not soluble
14,MEQIHGGDSNSGGGGGGSSRNDEISVTRASRFDALPEDCISKVISHTSPRDACVVASVSKSVKSAAQSDLVWEMFLPSEYSSLVLQSANHLSKKEIFLSLADNSVLVENGKKSFWVEKASGKKCYMLSAMELTIIWGDSPAYWKWITVPESKFEKVAELRNVCWFEVRGKISCGMLSKGTHYSVYVVFKTANGRSYGFDLVPVEAGVGFVGKVATKKSVYFESGNADSRSATSHYSGISEEEEEVEGERERGMNVVGPKERVDGWSEVELGKFYINNGGCGDDGSDEIEISIMETQNGNWKSGLIIQGIEIRPERSN,soluble
15,MGRQGSLALLLSIILIGETIANEYDGLSSHQSHQSTVTSAPIHVSEQQTSRNRPYNQPQLQQKPSVLTQSYQVLPESRNYYQYPQYLPTHTGYSNIQTVGQPYQMYGSAPGSNVVSGGNSESYGYNQQAPVPTVAPAPVHFSERQRSYSAAPTPPSPFSETRERENNNVRAPGHHAPAQQGHRSPSPPPSPFMINPKPVLSYGAANPFLANLPPAQGVYGAPIDSSHRGYDGFSLSAPAPPSGSSASVDDTWEALEASLDANTRRRHRIF,not soluble
16,MRTLFFIPSMGSVRLPLIDFLVKNDIEYVILSRRNHVAVQREIALDMFLEMKDYDTLAFLDEDVVPIEIDFQKVEAKFNEGYDVVCGYYYLKTLRGYSVYRKDWEKEIFDGEVNGCGLGFTFIKREFLEKIKRPAFLAFKPIESPHWIGEDVYFFSTHKPRTYALSSLKAYHFIDERLALSPDRKLILQNDHVARIKHHHHHH,soluble
17,MGSDKIHHHHHHMDFVDVPAVTRDATILSLRDVSRKLVRELGFMRSTLANSDLAPSAVHAVLEIGMKPGITAKDLATILRLDKSNTSRQIARLEAAGFVERRVSSDDARSSELYLSAEGKSLRARIDRFATSQVSNALRHMAPADQQALLRSLALYANALAQDNAGNAPPATPEAVQIIEGYQPGCIGDIASLHGRFYAAHWGFGAFFEKRVATELAAFAGSLPVDGKALWLYVENGRSLASLAIDGDKTTGIAHLRWFIVDESLHGSGIGRELMARAMRFVETQGFRETHLWTFKGLEAARHLYESHGFRLSEEFEGSQWGTTVTEQRFNRV,not soluble
18,KRTMSISWPLAFSGAFQGSLTGMDNLRFICRIYNVDIDYVKAFTEEFSELGQYLYEPVKRYSSGMKARLAFALSLAVEFDCYLIDEVIAVGDSRFADKCKYELFEKRKDRSIILVSHSHSAMKQYCDNAMVLEKGHMYQFEDMDKAYEYYNSLP,not soluble
19,MGSDKIHHHHHHMTARNILSYSYEEYVEKITAFHGYPAPGVLIGGFMVDLAVKNLPEGILYDAICETRTCLPDAVQLLTPCTFGNGWLTVLPMGLFAVSLYDKFTGEGVRVFLDVEKMGPWQEIRNWFLKLKTKKEQDSERLFKEIREAGPDILELRNVKLKPGFLEKKHKGKIVLCPQCREAYPAQDGELCLSCQGGSPYL,not soluble
20,MGSGGVVHCRCAKCFCYPTKRRIRRRPRNLTILSLPEDVLFHILKWLSVEDILAVRAVHSQLKDLVDNHASVWACASFQELWPSPGNLKLFERAAEKGNFEAAVKLGIAYLYNEGLSVSDEARAEVNGLKASRFFSLAERLNVGAAPFIWLFIRPPWSVSGSCCKAVVHESLRAECQLQRTHKASILHCLGRVLSLFEDEEKQQQAHDLFEEAAHQGCLTSSYLLWESDRRTDVSDPGRCLHSFRKLRDYAAKGCWEAQLSLAKACANANQLGLEVRASSEIVCQLFQASQAVSKQQVFSVQKGLNDTMRYILIDWLVEVATMKDFTSLCLHLTVECVDRYLRRRLVPRYRLQLLGIACMVICTRFISKEILTIREAVWLTDNTYKYEDLVRMMGEIVSALEGKIRVPTVVDYKEVLLTLVPVELRTQHLCSFLCELSLLHTSLSAYAPARLAAAALLLARLTHGQTQPWTTQLWDLTGFSYEDLIPCVLSLHKKCFHDDAPKDYRQVSLTAVKQRFEDKRYGEISQEEVLSYSQLCAALGVTQDSPDPPTFLSTGEIHAFLSSPSGRRTKRKRENSLQEDRGSFVTTPTAELSSQEETLLGSFLDWSLDCCSGYEGDQESEGEKEGDVTAPSGILDVTVVYLNPEQHCCQESSDEEACPEDKGPQDPQALALDTQIPATPGPKPLVRTSREPGKDVTTSGYSSVSTASPTSSVDGGLGALPQPTSVLSLDSDSHTQPCHHQARKSCLQCRPPSPPESSVPQQQVKRINLCIHSEEEDMNLGLVRL,soluble
